We go through 28 sequences from the supplement of paper PMC9170038.

This series relates to MS2 coat protein. Nature of the series: apparent KD of MS2 coat protein; designed switch direction (-1 OFF switch, 1 ON switch): 1; higher = weaker reporter binding. The essentials: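 Designed RNA switches sharing common flanks were transcribed on Illumina chips by stalled E. coli RNA polymerase. They were titrated with SNAP-549-labelled MS2 coat protein, from 0.7 or 1.5 nM doubling to 3 µM, in Tris-HCl pH 7.5 buffer with KCl, MgCl2, BSA, DTT, tRNA and Tween-20. Titrations ran without input, with 200 uM small-molecule ligand, or with an oligonucleotide input. The apparent KD of each design is the median over its clusters, after curve-fitting of normalised cluster fluorescence.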

Where [1] appears, read: input ligand: microRNA oligo, concentration not stated.
The mark [2] stands for this setting: Eterna round: R95, input ligand: FMN 200 uM.
The mark [3] stands for this setting: Eterna round: R95, input ligand: microRNA oligo, concentration not stated.
Where [4] appears, read: Eterna round: R95, input ligand: none.

Turning to “GAGUGGAGGAGAGGAUAUACAAUGAUAAUCACUGUAGAAGGUUCUAACAUGAGGAUCACCCAUGUAGGACUAUUCCUGAGAGUU [Parity 51 - Jieux - Same State NG 1] (Eterna round: R96, puzzle: Same State NG 1)”, under setting [1], the “apparent KD of MS2 coat protein” value is 9.46 nM.
For the sequence “GAGUGGUGAAAAGGAUAUGCAUUGUUAUUCACUGUAGAAGGUUUUAACAUGAGGAUCACCCAUGUAGGACUAUUCCUGUGUUUU [Parity 60 - Jieux - Same State NG 1] (Eterna round: R96, puzzle: Same State NG 1)”, the “apparent KD of MS2 coat protein” value is, setting by setting: (input ligand: FMN 200 uM) 17.6 nM; under setting [1], 14.8 nM; (input ligand: none) 23.2 nM.
As for “GAGUUUGAACUACAGGAUAUAUAGCAGAUGACAUGAGGAUCACCCAUGUAAGAGAAAGGAGGGAAAUAGAAGGGUAUGGGAGGUG [JR_SS2_Sub035] (puzzle: Same State 2)”, the “apparent KD of MS2 coat protein” value by setting is: under setting [2], 33.7 nM; under setting [3], 20.4 nM; under setting [4], 24.3 nM.
“GAUAAACAUGAGGAUCACCCAUGUAAUAAUAUGGGAGGAUAUCAGAAUGUAUGUAUGUAAUGAGAAGGCCUAAUAU [Mat - Same State 1 - Mod of Eli - D71] (puzzle: Same State 1)”: the “apparent KD of MS2 coat protein” value under setting [2] was determined as 61.8 nM, the “apparent KD of MS2 coat protein” value under setting [3] was found to be 545 nM and the “apparent KD of MS2 coat protein” value under setting [4] stood at 491 nM.
As to “GAUAUACAUGAGGAUCACCCAUGUCAUAUGACAUGAGGAUAUGUACAGACUUCGGUCUGUACAGAAGGCAUGUGUC [SS1 - 1011 Omei Mod 1] (puzzle: Same State 1)”, the “apparent KD of MS2 coat protein” value reads like this: under setting [2], 60.5 nM; under setting [3], 338 nM; under setting [4], 530 nM.
Consider “GAUCGUUUGAUAGGAUAUCGCUAUACAUGAGGAUCACCCAUGUUUACCACGCUGGUUUUUCAUACCGAGAAGGAUUCUGAUGAG [salish99_SSNG02_r04_008] (Eterna round: R96, puzzle: Same State NG 2)”, for which the “apparent KD of MS2 coat protein” value runs as follows: (input ligand: FMN 200 uM) 64.8 nM; under setting [1], 49.7 nM; (input ligand: none) 56.1 nM.
Regarding “GCACAUGAGGAUCACCCAUGUGCGCUUGGUUGUCCAAGCGCACAGGAUAUACCUCCAAAUGGGAGGUAGAAGGGUGAAAAGAAG [Leones] (Eterna round: R96, puzzle: Same State NG 3)”, the “apparent KD of MS2 coat protein” value (input ligand: FMN 200 uM) is 15.1 nM, the “apparent KD of MS2 coat protein” value under setting [1] turned out to be 11.1 nM and the “apparent KD of MS2 coat protein” value (input ligand: none) is 11 nM.
As for “GCAGAACAUGAGGAUCACCCAUGUCUCUAAAGUCGAGGAUAUGGGCAGGUUAUAUCCGAACCAGAAGGCGAUCUGC [SS1 Teenbexe 13] (puzzle: Same State 1)”, under setting [3], the “apparent KD of MS2 coat protein” value is 108 nM.
For “GCAGGACAUGAGGAUCACCCAUGUUCCAAAUAUUGAGGAUAUGGAUACGGUAUAUCCGAACCAGAAGGCAACCUGC [SS1 Teenbexe 21] (puzzle: Same State 1)”, the “apparent KD of MS2 coat protein” value by setting is: under setting [2], 25.3 nM; under setting [3], 22.1 nM; under setting [4], 23.3 nM.
On to “GCAUCACAUGAGGAUCACCCAUGUCUUCGGAGUCGAGGAUAUGGUCACUGUAAACAGUGGCCAGAAGGCGAGGUGC [SS1 - Son of Teenbexe v4] (puzzle: Same State 1)”, for which the “apparent KD of MS2 coat protein” value under setting [3] is 53.4 nM.
As for “GCCAACUCAUGAGGAUAUGGCACCUUAAUGGUGCCAGAAGGCAUGUCUAUUGACAUGAGGAUCACCCAUGUAUUUUUGUUGGCA [Fiskers NG1ss - 26] (Eterna round: R96, puzzle: Same State NG 1)”, the “apparent KD of MS2 coat protein” value is 120 nM (input ligand: FMN 200 uM), 750 nM under setting [1] and 1210 nM (input ligand: none).
For the sequence “GCCAUCGCAUGAGGAUAUGGCACCGAAACGGUGCCAGAAGGCAUGUCGUAAGACAUGAGGAUCACCCAUGUAGUUAAGAUGGCA [Mat - Same State NG 1 - JL mod - D91] (Eterna round: R96, puzzle: Same State NG 1)”, the “apparent KD of MS2 coat protein” value amounted to 215 nM (input ligand: FMN 200 uM), 229 nM under setting [1] and 907 nM (input ligand: none).
Take “GCCCGUAGCCACAUGAGGAUCACCCAUGUGCAGUUGUGAUCCGAGGAUAUUGCUAUUUGAGAUAGUAAGAAGGUGGACCGCGGU [Eternabot solution 31] (Eterna round: R96, puzzle: Same State NG 3)”: the “apparent KD of MS2 coat protein” value turned out to be 109 nM (input ligand: FMN 200 uM), 84.4 nM under setting [1] and 143 nM (input ligand: none).
Take “GCCGCAAGGGCAGGAUAUGGGUCCAGAACGCAAAUGCGCUCUGGUACAUGAGGAUCACCCAUGUCCCAGAAGGGCCCAAGCGGC [Isusara] (Eterna round: R96, puzzle: Same State NG 2)”: the “apparent KD of MS2 coat protein” value (input ligand: FMN 200 uM) is 16.5 nM, the “apparent KD of MS2 coat protein” value under setting [1] is 96.5 nM and the “apparent KD of MS2 coat protein” value (input ligand: none) is 106 nM.
Consider “GCCGCAAGGGCAGGAUAUGGGUCCAGAGCGCAAAUGCGCUCUGGUACAUGAGGAUCACCCAUGUCCCAGAAGGGCCCAAGCGAC [Xeatvearbe] (Eterna round: R96, puzzle: Same State NG 2)”, for which the “apparent KD of MS2 coat protein” value runs as follows: (input ligand: FMN 200 uM) 14.6 nM; under setting [1], 88.6 nM; (input ligand: none) 130 nM.
For the sequence “GCCGCAGGCUAAGGAUAUUGCGUGAUCACAUGAGGAUCACCCAUGUCAAUAUCGCUACGGAAGAGCAAGAAGGUAGCGCCGCAG [Eternabot solution 10] (Eterna round: R96, puzzle: Same State NG 2)”, the “apparent KD of MS2 coat protein” value runs as follows: (input ligand: FMN 200 uM) 188 nM; under setting [1], 182 nM; (input ligand: none) 127 nM.
With “GCCGCGAAGCGAGGAUAUACUGUCCGAGAGCCGCAAACAUGAGGAUCACCCAUGUAGGUGAGACCGUAGAAGGCGUAAGCGCAA [Eternabot solution 19] (Eterna round: R96, puzzle: Same State NG 2)”, the “apparent KD of MS2 coat protein” value runs as follows: (input ligand: FMN 200 uM) 46 nM; under setting [1], 235 nM; (input ligand: none) 331 nM.
The matching figures for “GCCGCGUUUCGCGCCUACAUGAGGAUCACCCAUGUAUGUAGGCAGGAUAUCGUUUGCUUUGCAAACGAGAAGGGCUGUAGUGGC [salish99_SSNG3_R04_008] (Eterna round: R96, puzzle: Same State NG 3)”: 70.4 nM, 165 nM and 188 nM.
As to “GCCGCGUUUCGCGCCUACAUGAGGAUCACCCAUGUAUGUAGGCAGGAUAUCGUUUGCUUUGCAAACGAGAAGGGCUGUUGUGGC [salish99_SSNG3_R04_009] (Eterna round: R96, puzzle: Same State NG 3)”, the “apparent KD of MS2 coat protein” value by setting is: (input ligand: FMN 200 uM) 79.5 nM; under setting [1], 217 nM; (input ligand: none) 227 nM.
For the sequence “GCCGGCUGGUGAGGAUAUGGCACCUUAUUGGUGCCAGAAGGCAUGUCAAUUGACAUGAGGAUCACCCAUGUAUUAUCGUUGGCG [salish99_SSNG1_r04_607] (Eterna round: R96, puzzle: Same State NG 1)”, the “apparent KD of MS2 coat protein” value came out at 725 nM (input ligand: FMN 200 uM), 325 nM under setting [1] and 370 nM (input ligand: none).
As to “GCCUCUGCUCCACAGGAUAUGCGCUGUUGUACAUGAGGAUCACCCAUGUGCAGCCGACCAGAGCUGCAGAAGGGUGAGAGAGAGU [Atisanesxe] (puzzle: Same State 2)”, the “apparent KD of MS2 coat protein” value under setting [2] came out at 28.6 nM, the “apparent KD of MS2 coat protein” value under setting [3] worked out at 253 nM and the “apparent KD of MS2 coat protein” value under setting [4] worked out at 243 nM.
On to “GCGAAGAGGUAAGGAUAUUCAUGGCGUAGACAUGAGGAUCACCCAUGUAGGAGACGAAUUAGAAGGGAGAAGGUACCAGGACGC [AK SSNG2-V2-17] (Eterna round: R96, puzzle: Same State NG 2)”, for which the “apparent KD of MS2 coat protein” value stood at 60.9 nM (input ligand: FMN 200 uM), 101 nM under setting [1] and 187 nM (input ligand: none).
Consider “GCGACGGCGAAAGGAUAUCAAAAUCAACAGUGUUGAGAAGGUUCUCCGAGGGUCGCACAUGAGGAUCACCCAUGUCGCGAAUCU [Eternabot solution 35] (Eterna round: R96, puzzle: Same State NG 1)”, for which, under setting [1], the “apparent KD of MS2 coat protein” value was 9.02 nM.
Consider “GCGAGCGUACUUGCAACAUGAGGAUCACCCAUGUUAACUGGACAGGAUAUGGUACCGUUUCGGUACCAGAAGGGUUUUACAUGU [JL SSNG3 3.65] (Eterna round: R96, puzzle: Same State NG 3)”, for which the “apparent KD of MS2 coat protein” value (input ligand: FMN 200 uM) turned out to be 35.1 nM, the “apparent KD of MS2 coat protein” value under setting [1] amounted to 29.1 nM and the “apparent KD of MS2 coat protein” value (input ligand: none) was found to be 35.6 nM.
With “GCGAGCGUACUUGCAGACAUGAGGAUCACCCAUGUAACUGGACAGGAUAUGGUACCGUUUCGGUACCAGAAGGGUUCACUCAUG [JL SSNG3 3.58] (Eterna round: R96, puzzle: Same State NG 3)”, the “apparent KD of MS2 coat protein” value was 388 nM (input ligand: FMN 200 uM), 119 nM under setting [1] and 176 nM (input ligand: none).
On to “GCGAGCGUACUUGCUACAUGAGGAUCACCCAUGUCUAUUGGACAGGAUAUGGUACCGUUUCGGUACCAGAAGGGUUCAUCAUGU [JL SSNG3 3.72] (Eterna round: R96, puzzle: Same State NG 3)”, for which the “apparent KD of MS2 coat protein” value is 400 nM (input ligand: FMN 200 uM), 46.2 nM under setting [1] and 34.6 nM (input ligand: none).
Regarding “GCGAGCGUACUUGCUACAUGAGGAUCACCCAUGUUUCAUGGACAGGAUAUGGUACCGUUUCGGUACCAGAAGGGUUCACAUGUA [JL SSNG3 3.80] (Eterna round: R96, puzzle: Same State NG 3)”, the “apparent KD of MS2 coat protein” value is, setting by setting: (input ligand: FMN 200 uM) 155 nM; under setting [1], 98.8 nM; (input ligand: none) 315 nM.
On to “GCGAUAUGAUGUUACAUGAGGAUCACCCAUGUAGCGACAGCUAAGGAUAUUGGAAAGGGAGGAGACGAGAAGGUAGGGUCACGC [AK SSNG3-V2-24] (Eterna round: R96, puzzle: Same State NG 3)”, for which the “apparent KD of MS2 coat protein” value turned out to be 22.9 nM (input ligand: FMN 200 uM), 15.8 nM under setting [1] and 19.7 nM (input ligand: none).
